# Laboratory results: patent US8106013B2 (Georgia Tech Research Corporation, priority 2006, dated 2012)
# What was measured:
# [1] = biological target: T1, Shaker Kv1.1 channels (ShB-IR) (Drosophila melanogaster, UniProt P08510, DEL6-46); experiment: ShB-IR K+ currents in oocytes, two-electrode voltage clamp; type: cell-based; details: 24 nM recombinant ChTx
# T1 construct: expressed in transfected cells; host or cells: Xenopus oocytes injected with cRNA
# Method: For ShB-IR, holding potential was −90 mV. Leak subtraction used a P/4 protocol with a conditioning pulse to −120 mV. Voltage was stepped from −100 mV post-train to potentials ranging from −40 to 0 mV in 10 mV increments.
# Adult female Xenopus were obtained from Xenopus One (Ann Arbor, Mich.). […] For experiments with ShB-IR, oocytes were injected with 0.06-1 ng cRNA. Leak currents were subtracted using a P/4 protocol; corrected traces are shown.
# For these experiments, the ShB variant was used with inactivation-removed (ShB-IR).
# [2] = biological target: T1, Shaker Kv1.1 channels (ShB-IR); details: read-out: reported Ki for inhibition of Shaker channels; cited from earlier work
# T1 sequence (P08510 with tags, fused parts or gaps DEL6-46): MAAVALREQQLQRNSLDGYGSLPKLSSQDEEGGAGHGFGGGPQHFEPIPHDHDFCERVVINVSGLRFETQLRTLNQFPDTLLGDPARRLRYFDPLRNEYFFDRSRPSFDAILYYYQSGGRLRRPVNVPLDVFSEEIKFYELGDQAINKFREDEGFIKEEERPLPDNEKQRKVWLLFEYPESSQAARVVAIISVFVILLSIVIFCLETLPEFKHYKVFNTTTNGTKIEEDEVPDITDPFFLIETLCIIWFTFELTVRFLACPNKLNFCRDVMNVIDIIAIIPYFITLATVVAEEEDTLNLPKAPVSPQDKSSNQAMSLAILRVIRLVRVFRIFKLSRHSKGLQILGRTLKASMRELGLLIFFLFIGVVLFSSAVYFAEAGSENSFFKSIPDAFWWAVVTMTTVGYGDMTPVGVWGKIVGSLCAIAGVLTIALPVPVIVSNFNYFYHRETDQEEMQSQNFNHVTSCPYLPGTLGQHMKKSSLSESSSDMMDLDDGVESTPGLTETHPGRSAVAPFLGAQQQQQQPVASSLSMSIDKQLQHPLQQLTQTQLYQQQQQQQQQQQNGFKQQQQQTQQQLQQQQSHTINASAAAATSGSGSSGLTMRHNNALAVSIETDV
substance,measurement,setting,value
charybdotoxin [ChTx],inhibition of ShB-IR currents,[1],15%
same,Ki,[2],~200 nM
